Source: patent publication US20070071675A1 (AbbVie / Abbott, published 2007)
Each block holds one binder with its values, some of them ahead of it.

Legend:
human IL-12 [1] = molecular target: T1, human IL-12 (human, UniProt P29459 23-219; P29460 23-328); experiment: SPR (Biacore)
T1 construct: also called hIL-12
T1 sequence (looked up) 1: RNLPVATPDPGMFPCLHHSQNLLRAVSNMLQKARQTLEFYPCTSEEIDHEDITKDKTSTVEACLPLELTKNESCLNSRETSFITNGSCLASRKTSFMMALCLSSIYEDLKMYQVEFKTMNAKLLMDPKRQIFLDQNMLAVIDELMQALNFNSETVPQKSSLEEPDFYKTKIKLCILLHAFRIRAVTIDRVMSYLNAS
T1 sequence (looked up) 2: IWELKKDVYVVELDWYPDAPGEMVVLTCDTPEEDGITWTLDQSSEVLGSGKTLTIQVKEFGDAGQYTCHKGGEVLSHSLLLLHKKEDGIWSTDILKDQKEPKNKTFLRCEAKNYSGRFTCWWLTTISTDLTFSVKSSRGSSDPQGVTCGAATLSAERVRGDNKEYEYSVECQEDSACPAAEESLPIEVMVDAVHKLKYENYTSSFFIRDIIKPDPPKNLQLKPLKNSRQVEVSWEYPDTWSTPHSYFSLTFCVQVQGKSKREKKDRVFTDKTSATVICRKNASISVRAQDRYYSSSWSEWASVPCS

human IL-18 [2] = molecular target: T2, human IL-18 (human, UniProt Q14116 37-193); experiment: SPR (Biacore)
T2 construct: also called hIL-18

human IL-12 [3] = molecular target: T1, human IL-12; experiment: cell-based or functional assay
human IL-18 [4] = molecular target: T2, human IL-18; experiment: cell-based or functional assay
recombinant human IL-1α [5] = molecular target: T3, recombinant human IL-1α (human, UniProt P01583 113-271); experiment: cell-based or functional assay
T3 sequence (looked up): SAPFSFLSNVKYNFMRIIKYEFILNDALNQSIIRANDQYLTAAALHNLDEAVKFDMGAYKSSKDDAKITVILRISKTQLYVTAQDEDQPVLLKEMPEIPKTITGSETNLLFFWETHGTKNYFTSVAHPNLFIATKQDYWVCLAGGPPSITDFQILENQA

recombinant human IL-1β = recombinant human IL-1β (human, UniProt P01584 117-269); experiment: cell-based or functional assay
recombinant human IL-1α [6] = molecular target: T3, recombinant human IL-1α; experiment: cell-based or functional assay; remark: listed apart in the source
recombinant human IL-1α [7] = molecular target: T3, recombinant human IL-1α; experiment: SPR (Biacore); end of the range tied to DVD1-Ig by the Kd values of Table 13
Procedure: The kinetics of DVD-Ig binding to rhIL1-α and rhIL1-β was determined by surface plasmon resonance-based measurements with a Biacore 3000 instrument (Biacore AB, Uppsala, Sweden) using HBS-EP (10 mM HEPES, pH 7.4, 150 mM NaCl, 3 mM EDTA, and 0.005% surfactant P20) at 25° C. All chemicals were obtained from Biacore AB (Uppsala, Sweden) or otherwise from a different source as described herein. Approximately, 5000 RU of goat anti-human IgG Fcγ fragment specific polyclonal antibody (Pierce Biotechnology Inc, Rockford, Ill.) diluted in 10 mM sodium acetate (pH 4.5) was directly immobilized across a CM5 research grade biosensor chip using a standard amine coupling kit according to manufacturer's instructions and procedures at […]. Unreacted moieties on the biosensor surface were blocked with ethanolamine. Modified carboxymethyl dextran surface in flowcell 2 and 4 was used as a reaction surface. Unmodified carboxymethyl dextran without goat anti-human IgG in flow cell 1 and 3 was used as the reference surface. […] The association and dissociation rate constants, kon (M-1s-1) and koff (s-1) were determined under a continuous flow rate of […]. […] The equilibrium dissociation constant (M) of the reaction between DVD-Ig and rhIL1α/β was then calculated from the kinetic rate constants by the following formula: KD=koff/kon. […]

B1: DVD1812LL (anti-IL-18/IL-12 DVD-Ig, 18-12-C, long linker) (bispecific antibody)
heavy: EVQLVQSGTEVKKPGESLKISCKGSGYTVTSYWIGWVRQMPGKGLEWMGFIYPGDSETRYSPTFQGQVTISADKSFNTAFLQWSSLKASDTAMYYCARVGSGWYPYTFDIWGQGTMVTVSSASTKGPSVFPLAPQVQLVESGGGVVQPGRSLRLSCAASGFTFSSYGMHWVRQAPGKGLEWVAFIRYDGSNKYYADSVKGRFTISRDNSKNTLYLQMNSLRAEDTAVYYCKTHGSHDNWGQGTMVTVSS
light: EIVMTQSPATLSVSPGERATLSCRASESISSNLAWYQQKPGQAPRLFIYTASTRATDIPARFSGSGSGTEFTLTISSLQSEDFAVYYCQQYNNWPSITFGQGTRLEIKRTVAAPSVFIFPPQSVLTQPPSVSGAPGQRVTISCSGSRSNIGSNTVKWYQQLPGTAPKLLIYYNDQRPSGVPDRFSGSKSGTSASLAITGLQAEDEADYYCQSYDRYTHPALLFGTGTKVTVLG
notes: see recheck on the constant domain of the DVD1812 light chains; also called DVD1812HC-LL/DVD1812LC-LL
Kd (human IL-12 [1]): 0.113 nM
Kd (human IL-18 [2]): 0.162 nM
Potency (IC50, M), IL-12, PHA blast / PBMC assay (human IL-12 [3]): 1.18e-10 M
Potency (IC50, M), IL-18, KG-1 bioassay (human IL-18 [4]): 7.8e-11 M

B2: hIL-1a/bDVD3a-Ig (bispecific antibody, human IgG1, kappa)
heavy: not shown
light: DIVMTQSQRFMSTSVGDRVSVTCKASQNVGTNIAWYQQKPGQSPRALIYSASYRYSGVPDRFTGSGSGTDFTLTISNVQSVDLAEYFCQQYTRYPLTFGGGTKLEIKRTVAAPETTVTQSPASLSMAIGEKVTIRCITSTDIDVDMNWYQQKPGEPPKLLISQGNTLRPGVPSRFSSSGSGTDFVFIIENMLSEDVADYYCLQSDNLPLTFGAGTKLELKRRTVAAPSVFIFPPSDEQLKSGTASVVCLLNNFYPREAKVQWKVDNALQSGNSQESVTEQDSKDSTYSLSSTLTLSKADYEKHKVYACEVTHQGLSSPVTKSFNRGEC
Potency (IC50) M, IL-1α, MRC-5 bioassay (recombinant human IL-1α [5]): 0.75 nM

Now from value to binder:

Potency (IC50) M, IL-1α, MRC-5 bioassay (recombinant human IL-1α [5]): 2.3 nM
Potency (IC50) M, IL-1β, MRC-5 bioassay (recombinant human IL-1β): 70 nM
B3: hIL-1a/bDVD6a-Ig (bispecific antibody, human IgG1, kappa)
heavy: not shown
light: QIVLTQSPALMSASPGEKVTMTCSASSSVNYMYWYQQKPRSSPKPWIYLTSNLASGVPARFSGSGSGTSYSLTISSMEAEDAATYYCQQWNSNPYTFGGGTKLEMKRTVAAPSVFIFPPQIVLTQSPAIMSASPGEKVTITCSASSSVSYMHWFQQKPGASPKLWIYSTSNLASGVPARFSGSGSGTSYSLTVSRMEAEDAATYYCQQRSTYPYTFGGGTKLEIKRRTVAAPSVFIFPPSDEQLKSGTASVVCLLNNFYPREAKVQWKVDNALQSGNSQESVTEQDSKDSTYSLSSTLTLSKADYEKHKVYACEVTHQGLSSPVTKSFNRGEC

neutralizing activity, MRC-5 bioassay, fold less than the chimeric Abs (recombinant human IL-1α [6]): 3 fold
fold lower affinity than the chimeric 3D12.E3 Ab (recombinant human IL-1α [7]): 2 to 3 fold
B4: hIL-1a/bDVD1-Ig (bispecific antibody, human IgG1, kappa)
heavy: not shown
light: NIVLTQSPASLAVSLGQRATISCRASESVDSYGNSYMHWYQQKPGQPPKLLIYLASNLESGVPARFSGSGSRTDFTLTIDPVEADDAATYYCQQNNEDPFTFGSGTKLEIKRNIQMTQTTSSLSASLGDRVTISCRASQDISNCLNWYQQKPDGTVKLLIYYTSRLHSGVPSRFSGSGSGTDYSLTISNLEQEDIATYFCQQGKTLPYAFGGGTKLEINRRTVAAPSVFIFPPSDEQLKSGTASVVCLLNNFYPREAKVQWKVDNALQSGNSQESVTEQDSKDSTYSLSSTLTLSKADYEKHKVYACEVTHQGLSSPVTKSFNRGEC
notes: 13F5.G5 V domains fused directly (no linker) to the N-terminus of 3D12.E3 V domains; human Cγ1/Cκ; also called hIL-1α/βDVD1-Ig

Potency (IC50) M, IL-1α, MRC-5 bioassay (recombinant human IL-1α [5]): 1 nM
Potency (IC50) M, IL-1β, MRC-5 bioassay (recombinant human IL-1β): 0.75 nM
B5: hIL-1a/bDVD6b-Ig (bispecific antibody, human IgG1, kappa)
heavy: not shown
light: QIVLTQSPAIMSASPGEKVTITCSASSSVSYMHWFQQKPGASPKLWIYSTSNLASGVPARFSGSGSGTSYSLTVSRMEAEDAATYYCQQRSTYPYTFGGGTKLEIKRTVAAPSVFIFPPQIVLTQSPALMSASPGEKVTMTCSASSSVNYMYWYQQKPRSSPKPWIYLTSNLASGVPARFSGSGSGTSYSLTISSMEAEDAATYYCQQWNSNPYTFGGGTKLEMKRRTVAAPSVFIFPPSDEQLKSGTASVVCLLNNFYPREAKVQWKVDNALQSGNSQESVTEQDSKDSTYSLSSTLTLSKADYEKHKVYACEVTHQGLSSPVTKSFNRGEC
